Measured values from patent US20170298119A1.

Biological target: recombinant FcRn protein (Homo sapiens (Human)) (UniProt P55899)
Test: BLI (Octet): antibody on anti-CH1 biosensors, recombinant FcRn at pH 6.0; fold change against wild type Motavizumab (p-1342)

- Kd (fold increase): 9.3 fold
- koff (fold decrease): 3.7 fold
- kon (fold increase): 2.5 fold
Substance: LS (antibody)
